Measured values taken from the RNAGym collection of RNA variant scans (doi:10.1101/gr.219683.116).

B1: mRNA-splicing (parent)
chain: AGUUGCUGCUGGGAGCUCCAGCACAGUGAAAUGGACAGAAGGGCAGAGCAA

Variants of: B1
Experiment: exon inclusion enrichment index; higher = more inclusion; WT1 exon 5 minigene, HEK293

First: AGUUGAAGAAGGGAGCUCCAGCACAGUGAAAUGGACAGAUAGGCAGAGCAA [C6A U7A C9A U10A A40U G41A]
Second: AGUUAGGGAUGGGAGCUCCAGCACAGUGAAAUAUACAGAAGGGCAGAGCAA [G5A C6G U7G C9A G33A G34U]
The “exon inclusion enrichment index” value of the first is higher: 0.0256 for the first, 0.000917 for the second.

Going from AGUUAGGCAUGGGAGCUCCAGCACAGUGAAAUGGACAGAAGGGCAGAGCAA [G5A C6G U7G G8C C9A] to AGGCGACGACGGGAGCUCCAGCACAGUGAAAUGGACAGAAGGGCAGAGCAA [U3G U4C C6A U7C C9A U10C], the “exon inclusion enrichment index” value rises from 0.0086 to 3.64.

Compared with AGUUCGCGCCGGGAGCUCCAGCACAGUGAAAUGGUCAGAAGGGCAGAGCAA [G5C C6G U7C U10C A35U], AGUUCGCGCCGGGAGCUCCAGCAAUGUGAAAUGGACAGAAGGGCAGAGCAA [G5C C6G U7C U10C C24A A25U] is higher in “exon inclusion enrichment index” value: 1.25 for the first, 2.85 for the second.

Going from AGUUCACACAGGGAGCUCCAGCACAGUCAAAUGGACAGAAGGGCAGAGCAA [G5C C6A U7C G8A U10A G28C] to AGUUUCUUUUGGGAUUUCCAGCACAGUGAAAUGGACAGAAGGGCAGAGCAA [G5U G8U C9U G15U C16U], the “exon inclusion enrichment index” value falls from 0.0496 to 0.0287.

Compared with AGUUAUAUAUGGGAGCUCCAGCACAGUGAAAUGGACAGAAUUGCAGAGCAA [G5A C6U U7A G8U C9A G41U G42U], AGUUCGCGCCGGGAGCUCCAGCACAGUGAAAUGGACAGAAGCGCAGAGCAA [G5C C6G U7C U10C G42C] is higher in “exon inclusion enrichment index” value: 0.0785 for the first, 4.75 for the second.

First: AGUUCACACAGGGUUCUCCAGCACAGUGAAAUGGACAGAAGGGCAGAGCAA [G5C C6A U7C G8A U10A A14U G15U]
Second: AGUUUCUUUUGGGCUCUCCAGCACAGUGAAAUGGACAGAAGGGCAGAGCAA [G5U G8U C9U A14C G15U]
The “exon inclusion enrichment index” value of the first is higher: 0.0233 for the first, 0.0169 for the second.

First: AGUUAUAUAUGGGACCUCCAGCACAGUGAAAUGGACAGAAGGGCAGAGCAA [G5A C6U U7A G8U C9A G15C]
Second: AGUUAUAUAUGGGAGCUCCAGCACAGUGAAAUGGACUUAAGGGCAGAGCAA [G5A C6U U7A G8U C9A A37U G38U]
The “exon inclusion enrichment index” value of the first is higher: 0.156 for the first, 0.0205 for the second.

First: AGUUGAAGAAGGGAGCUCCAGCACAGUACAAUGGACAGAAGGGCAGAGCAA [C6A U7A C9A U10A G28A A29C]
Second: AGUUCUGCUCGGGAGCUCCAGCACAGUGAAAUGGACAGAAGGGCAGAGCAA [G5C C6U U7G G8C C9U U10C]
The “exon inclusion enrichment index” value of the first is lower: 0.433 for the first, 1.54 for the second.

First: AGUUCUUCUCGGGAGCUCCAGCACAGUGAAAUGGACAGAAAUGCAGAGCAA [G5C C6U G8C C9U U10C G41A G42U]
Second: AGUUAGAAAUGGGAGCUCCAGCACAGUGAAAUGGACAGAAGGGCAGAGCAA [G5A C6G U7A G8A C9A]
The “exon inclusion enrichment index” value of the first is higher: 1.71 for the first, 0.0263 for the second.

Going from AGUUCUUCUCGGGAGCUCCAGCACAGUGAGUUGGACAGAAGGGCAGAGCAA [G5C C6U G8C C9U U10C A30G A31U] to AGUUGCUGCUGGGAGCUCCAGCACAGUGAAAUGGACGUAAGGGCAGAGCAA [A37G G38U], the “exon inclusion enrichment index” value falls from 0.63 to 0.0457.

Going from AGUUAGGGAUGGGAGCUCCAGCACAGUGAAAUGGACAGAAGCCCAGAGCAA [G5A C6G U7G C9A G42C G43C] to AGUUUCUUUUGGGAAUUCCAGCACAGUGAAAUGGACAGAAGGGCAGAGCAA [G5U G8U C9U G15A C16U], the “exon inclusion enrichment index” value rises from 0.0141 to 0.0203.

Going from AGUUCGCGCCGGGAGCCUCAGCACAGUGAAAUGGACAGAAGGGCAGAGCAA [G5C C6G U7C U10C U17C C18U] to AGUUCGCGCCGGGAGCUCCAGCACAGUGAAAUGGACAGAAGGGCGCAGCAA [G5C C6G U7C U10C A45G G46C], the “exon inclusion enrichment index” value falls from 3.54 to 3.05.

First: AGUUCACACAGGGACAUCCAGCACAGUGAAAUGGACAGAAGGGCAGAGCAA [G5C C6A U7C G8A U10A G15C C16A]
Second: AGUUCUUCUCGGGAGCUUCAGCACAGUGAAAUGGACAGAAGGGCAGAGCAA [G5C C6U G8C C9U U10C C18U]
The “exon inclusion enrichment index” value of the first is lower: 0.0594 for the first, 1.62 for the second.

Going from AGUUUCUUUGCGGAGCUCCAGCACAGUGAAAUGGACAGAAGGGCAGAGCAA [G5U G8U C9U U10G G11C] to AGUUCGCGCCGGGAGCUUAAGCACAGUGAAAUGGACAGAAGGGCAGAGCAA [G5C C6G U7C U10C C18U C19A], the “exon inclusion enrichment index” value rises from 0.742 to 0.76.

Compared with AGUUGAAGAAGGGAGCUCCAGCAGGGUGAAAUGGACAGAAGGGCAGAGCAA [C6A U7A C9A U10A C24G A25G], AGUUGCUGCUGCUAGCUCCAGCACAGUGAAAUGGACAGAAGGGCAGAGCAA [G12C G13U] is lower in “exon inclusion enrichment index” value: 0.308 for the first, 0.237 for the second.

Compared with AGCGCACACAGGGAGCUCCAGCACAGUGAAAUGGACAGAAGGGCAGAGCAA [U3C U4G G5C C6A U7C G8A U10A], AGUUUCUUUUGGGAGCUCCAGCACAGUGAAAUGGACAGAAGAUCAGAGCAA [G5U G8U C9U G42A G43U] is higher in “exon inclusion enrichment index” value: 0.239 for the first, 1.46 for the second.

Compared with AGUUGCUGCUGGGAGCUCCAGCACAGUGAAAUGGACAGAAAUGCAGAGCAA [G41A G42U], AGUUAUAUAUGGGAGCUCCAGCACAGUGUUAUGGACAGAAGGGCAGAGCAA [G5A C6U U7A G8U C9A A29U A30U] is lower in “exon inclusion enrichment index” value: 0.107 for the first, 0.00971 for the second.

Going from AGUUGCUGCUGGGAGCUCCAGCACAGUGAAAUGGACAGGAGGGCAGAGCAA [A39G] to AGUUCACACAGGGAGCUCCAGCACAGUGAAAUGGACAGAAGGGCCCAGCAA [G5C C6A U7C G8A U10A A45C G46C], the “exon inclusion enrichment index” value rises from 0.074 to 0.0869.

Compared with AGUUUCUUUUGGGAGCUCCAGCACAGUGAAAUGGACGGAAGGGCAGAGCAA [G5U G8U C9U A37G], AGUUCGCGCCGGGAGCUCCAGCACAGUGAAAUGAACAGAAGGGCAGAGCAA [G5C C6G U7C U10C G34A] is higher in “exon inclusion enrichment index” value: 0.303 for the first, 2.69 for the second.

Compared with AGUUUCUUUUGGGAGCUCCAGCACAGUGAAAUGGACAGAAGGGCAACGCAA [G5U G8U C9U G46A A47C], AGUUGACGACGGGAGCUCCAGCACAGUGAAAUGGACAUAAGGGCAGAGCAA [C6A U7C C9A U10C G38U] is higher in “exon inclusion enrichment index” value: 0.466 for the first, 1.44 for the second.

First: AGUUGACGACGGGAGCUCCAGCACAGUGAAAUGGACACAAGGGCAGAGCAA [C6A U7C C9A U10C G38C]
Second: AGUUCGCGCCGGGAGCACCAGCACAGUGAAAUGGACAGAAGGGCAGAGCAA [G5C C6G U7C U10C U17A]
The “exon inclusion enrichment index” value of the first is lower: 2.15 for the first, 3.8 for the second.

First: AGUUCACACAGGGAGCUCCAGCGAAGUGAAAUGGACAGAAGGGCAGAGCAA [G5C C6A U7C G8A U10A A23G C24A]
Second: AGUUACCACCGGGAGCUACAGCACAGUGAAAUGGACAGAAGGGCAGAGCAA [G5A U7C G8A U10C C18A]
The “exon inclusion enrichment index” value of the first is lower: 0.48 for the first, 1.35 for the second.

Going from AGUUCUUCUCACGAGCUCCAGCACAGUGAAAUGGACAGAAGGGCAGAGCAA [G5C C6U G8C C9U U10C G11A G12C] to AGUUCGCGCCGGGAGCGUCAGCACAGUGAAAUGGACAGAAGGGCAGAGCAA [G5C C6G U7C U10C U17G C18U], the “exon inclusion enrichment index” value rises from 0.41 to 3.11.

First: AGUUGAAGAAGGGAGCUCCAGCACUUUGAAAUGGACAGAAGGGCAGAGCAA [C6A U7A C9A U10A A25U G26U]
Second: AGUUGACGACGGGAGCUCCAGCACAGUGAAAUGGACAGAAGUGCAGAGCAA [C6A U7C C9A U10C G42U]
The “exon inclusion enrichment index” value of the first is lower: 0.734 for the first, 3.3 for the second.

Going from AGUUAGGGAUGGGAGCUCCAGCACAGUGAAAUUUACAGAAGGGCAGAGCAA [G5A C6G U7G C9A G33U G34U] to AGUUAGGGAUGGGAGCUCCAGCACAGUGAAAUGGACAGACAGGCAGAGCAA [G5A C6G U7G C9A A40C G41A], the “exon inclusion enrichment index” value falls from 0.000939 to 0.00061.

With AGUUGAAGAAGGGAGCUCCAUUACAGUGAAAUGGACAGAAGGGCAGAGCAA [C6A U7A C9A U10A G21U C22U] the “exon inclusion enrichment index” value was 0.172.
